Measurements reported in publication PMC4963090 (PLoS ONE, 2016).

B1: motavizumab Fab (Fab, V domains shown)
VH: QVTLRESGPALVKPTQTLTLTCTFSGFSLSTAGMSVGWIRQPPGKALEWLADIWWDDKKHYNPSLKDRLTISKDTSKNQVVLKVTNMDPADTATYYCARDMIFNFYFDVWGQGTTVTVSS
VL: DIQMTQSPSTLSASVGDRVTITCSASSRVGYMHWYQQKPGKAPKLLIYDTSKLASGVPSRFSGSGSGTEFTLTISSLQPDDFATYYCFQGSGYPFTFGGGTKVEIK
notes: Antigenic site II-directed antibody; also called Fab motavizumab; source: HEK 293-F, co-transfected heavy and light chain plasmids; IgG on Protein A, digested with Lys-C or HRV3C protease, Fab purified by SEC
B2: D25 Fab (Fab, V domains shown)
VH: QVQLVQSGAEVKKPGSSVMVSCQASGGPLRNYIINWLRQAPGQGPEWMGGIIPVLGTVHYAPKFQGRVTITADESTDTAYIHLISLRSEDTAMYYCATETALVVSTTYLPHYFDNWGQGTLVTVSS
VL: DIQMTQSPSSLSAAVGDRVTITCQASQDIVNYLNWYQQKPGKAPKLLIYVASNLETGVPSRFSGSGSGTDFSLTISSLQPEDVATYYCQQYDNLPLTFGGGTKVEIK
notes: Antigenic site Ø-directed antibody; also called Fab D25; source: HEK 293-F, co-transfected heavy and light chain plasmids; IgG on Protein A, digested with Lys-C or HRV3C protease, Fab purified by SEC

How the values were obtained:
[1] = target: head-only RSV F immunogen i-273 (respiratory syncytial virus subtype A, strain A2) (UniProt P03420); assay: negative-stain electron microscopy; immunogens alone or mixed with D25 and/or motavizumab Fabs; 20 mM HEPES pH 7.0, 150 mM NaCl; uranyl formate; reference-free 2D class averages
[2] = target: head-only RSV F immunogen i-210 (respiratory syncytial virus subtype A, strain A2 | bacteriophage T4) (UniProt P03420); assay: BLI; head-only variants (50 ug/ml) held on anti-His-tag (HIS1K) tips; Fabs in solution 0.016-0.5 uM; 30°C, PBS + 1% BSA; global 1:1 fit
[3] = target: head-only RSV F immunogen i-273 (respiratory syncytial virus subtype A, strain A2) (UniProt P03420); assay: as above
[4] = target: T1, head-only RSV F immunogen i-447 (Human respiratory syncytial virus A, …, S190F | S155C | S290C); assay: as above; conditions: both partners purified
T1 construct: RSV fusion (F) glycoprotein, subtype A strain A2, F1 segment of domain III (head); numbers count on: PDB entry 4JHW; linker; RSV fusion (F) glycoprotein, subtype A strain A2, F2 segment of domain III (head); MTQ-F1-GGPG-F2; A signal peptide for secretion was added; Tags are thrombin-cleavable: held by the His-tag or Strep-tag in BLI; said to be cleaved before SEC, EM and immunisation; also called …
T1 chain: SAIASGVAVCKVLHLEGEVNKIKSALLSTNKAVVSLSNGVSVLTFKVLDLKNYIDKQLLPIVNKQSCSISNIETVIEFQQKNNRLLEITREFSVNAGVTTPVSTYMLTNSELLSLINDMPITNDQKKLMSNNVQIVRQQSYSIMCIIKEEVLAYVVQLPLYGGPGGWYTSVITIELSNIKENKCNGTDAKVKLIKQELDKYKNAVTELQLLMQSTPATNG

[5] = target: T2, head-only RSV F immunogen i-693 (Human respiratory syncytial virus A, …, S155C | S190F | V207L | S290C | S155C | S190F | V207L | S290C); assay: as above; conditions: both partners purified
T2 construct: RSV fusion (F) glycoprotein, subtype A strain A2, F2 segment of domain III, first monomer; numbers count on: PDB entry 4JHW; linker between F2 and F1; RSV fusion (F) glycoprotein, subtype A strain A2, F1 segment, first monomer; linker between the two identical monomers; RSV fusion (F) glycoprotein, subtype A strain A2, F2 segment of domain III, second monomer; RSV fusion (F) glycoprotein, subtype …
T2 chain: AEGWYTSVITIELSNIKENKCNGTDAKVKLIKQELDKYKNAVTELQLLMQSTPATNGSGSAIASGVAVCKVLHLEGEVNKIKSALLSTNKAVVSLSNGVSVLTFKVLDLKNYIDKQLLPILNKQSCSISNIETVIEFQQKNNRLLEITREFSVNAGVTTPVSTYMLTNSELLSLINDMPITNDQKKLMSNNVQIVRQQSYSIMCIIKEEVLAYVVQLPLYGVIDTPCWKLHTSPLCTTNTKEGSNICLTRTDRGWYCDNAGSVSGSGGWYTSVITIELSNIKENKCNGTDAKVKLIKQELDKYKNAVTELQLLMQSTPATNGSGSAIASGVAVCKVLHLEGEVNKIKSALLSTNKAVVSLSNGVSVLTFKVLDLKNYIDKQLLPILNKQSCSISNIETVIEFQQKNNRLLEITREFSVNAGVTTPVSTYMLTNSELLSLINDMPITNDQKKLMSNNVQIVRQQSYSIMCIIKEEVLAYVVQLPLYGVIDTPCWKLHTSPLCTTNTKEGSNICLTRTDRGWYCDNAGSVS

[6] = target: T3, head-only RSV F immunogen i-273 (Human respiratory syncytial virus A, …, S155C | S190F | V207L | S290C | L258K | L273K); assay: as above; conditions: both partners purified
T3 construct: RSV fusion (F) glycoprotein, subtype A strain A2, F1 segment of domain III (head); numbers count on: PDB entry 4JHW; linker; RSV fusion (F) glycoprotein, subtype A strain A2, F2 segment of domain III (head); Circular permutant F1-GG-F2; A signal peptide for secretion was added; Tags are thrombin-cleavable: held by the His-tag in the kinetic BLI; said to be cleaved before SEC, EM and immunisation; …
T3 chain: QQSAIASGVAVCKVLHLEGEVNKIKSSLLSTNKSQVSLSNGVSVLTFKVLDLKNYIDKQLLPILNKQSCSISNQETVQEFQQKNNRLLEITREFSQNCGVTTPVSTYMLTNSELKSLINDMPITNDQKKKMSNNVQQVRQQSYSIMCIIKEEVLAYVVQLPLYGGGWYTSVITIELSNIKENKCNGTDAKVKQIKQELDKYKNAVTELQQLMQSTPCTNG

[7] = target: T4, head-only RSV F immunogen i-210 (Human respiratory syncytial virus A, …, S155C | S190F | V207L | S290C | L258K); assay: as above; conditions: both partners purified
T4 construct: RSV fusion (F) glycoprotein, subtype A strain A2, F1 segment of domain III (head); numbers count on: PDB entry 4JHW; linker; RSV fusion (F) glycoprotein, subtype A strain A2, F2 segment of domain III (head); linker to the foldon; bacteriophage T4 foldon trimerization domain (of fibritin); Circular permutant F1-GGSGG-F2-GGSGGSG-foldon; A signal peptide for secretion was added; Tags are …
T4 chain: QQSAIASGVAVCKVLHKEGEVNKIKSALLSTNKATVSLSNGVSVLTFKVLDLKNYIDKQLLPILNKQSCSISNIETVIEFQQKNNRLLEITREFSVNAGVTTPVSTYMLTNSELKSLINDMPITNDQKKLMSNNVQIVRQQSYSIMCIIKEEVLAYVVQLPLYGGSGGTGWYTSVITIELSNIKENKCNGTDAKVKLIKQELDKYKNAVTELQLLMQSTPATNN

| Molecule | percent of particles with bound Fab [1] | Kd [2] | Kd [3] | Kd [4] | Kd [5] | Kd [6] | Kd [7] |
| --- | --- | --- | --- | --- | --- | --- | --- |
| motavizumab Fab | < 10% | 761 nM | 1360 nM | – | – | – | – |
| B1 | – | – | – | 0.5 nM | 6.5 nM | – | – |
| B2 | – | – | – | 0.7 nM | 9.9 nM | 33.3 nM | 0.7 nM |
